{"source": "patent US20120276019", "key": {"[1]": {"target": "recombinant α-synuclein 1-95 (1-95 AA) (GenWay Biotech) (UniProt P37840)"}, "[2]": {"target": "recombinant α-synuclein, full length (1-140 AA) (rPeptide) (UniProt P37840)"}}}
{"substance": "porcine pancreas derived KLK1", "values": [{"measurement": "degradation (cleavage) of α-synuclein 1-95, Western blot after 3 hours at 37° C., 1 mM KLK1 + 250 µg/ml α-synuclein 1-95", "setting": "[1]", "result": "After 3 hours of treatment, all detectable α-synuclein 1-95 was degraded by KLK1"}, {"measurement": "degradation (cleavage) of α-synuclein, Western blot after 24 hours at 37° C., 100 nM KLK1 + 2.5 µM α-synuclein", "setting": "[2]", "result": "After 24 hours of treatment, all detectable α-synuclein was degraded by KLK1"}]}
